Non-standard residues stand in square brackets, D forms with d. No end group written: not given here. R1 = not defined here; R2 = not defined here; Aib = CC(C)(N)C(=O)O
How the values were obtained:
Test in all cases: cell-based or functional assay
[1] = molecular target: glucagon-like peptide-1 receptor
[2] = molecular target: T1, gastric inhibitory peptide receptor
T1 sequence (P48546 whole entry, species assumed, looked up): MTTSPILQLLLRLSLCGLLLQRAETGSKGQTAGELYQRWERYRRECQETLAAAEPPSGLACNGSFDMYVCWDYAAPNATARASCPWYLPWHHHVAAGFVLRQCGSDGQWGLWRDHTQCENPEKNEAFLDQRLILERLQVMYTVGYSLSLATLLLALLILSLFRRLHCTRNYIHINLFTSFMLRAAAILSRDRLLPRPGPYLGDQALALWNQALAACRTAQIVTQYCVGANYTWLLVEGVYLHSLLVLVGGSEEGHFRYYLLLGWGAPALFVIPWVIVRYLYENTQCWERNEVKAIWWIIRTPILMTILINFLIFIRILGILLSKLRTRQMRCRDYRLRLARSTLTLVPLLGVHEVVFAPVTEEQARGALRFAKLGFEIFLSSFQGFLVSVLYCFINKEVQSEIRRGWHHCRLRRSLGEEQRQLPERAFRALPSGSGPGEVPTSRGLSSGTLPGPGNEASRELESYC

glucagon receptor = molecular target: glucagon receptor

Row | Binder | In vitro activity relative to native polypeptide (%), relative to GLP-1 (cAMP HTRF, from EC50) [1] [%] | In vitro activity relative to native polypeptide (%), relative to GIP (cAMP HTRF, from EC50) [2] [%] | In vitro activity relative to native polypeptide (%), relative to GCG (cAMP HTRF, from EC50) (glucagon receptor) [%]
1 | H[Aib]QGTFTSDLSRAMEKEAVRLFIEWLIEGGPSSGAPPPS (ends and bridges not checked) [triple agonist peptide of SEQ ID NO: 3] | 67.7 | 12.1 | 12.2
2 | H[Aib]QGTFTSDLSAAMEKIAVRLFIEWLREGGPSSGAPPPS (ends and bridges not checked) [triple agonist peptide of SEQ ID NO: 5] | 38.4 | 1.99 | 0.72
3 | H[Aib]QGTFTSDLSRAMEK(R1)IAVRLFIEWLIEGGPSSGAPPPS-NH2 (reading uncertain) [triple agonist peptide of SEQ ID NO: 11, chemically modified with R1 side chain] | 191 | 2.53 | 3.89
4 | H[Aib]QGTFTSDLSLAQEKEAVRLFIEWLREGGPSSGAPPPS (ends and bridges not checked) [triple agonist peptide of SEQ ID NO: 8] | 123 | 2.02 | 1.21
5 | H[Aib]QGTFTSDLSRAMEKEAVRLFIEWLIDGGPSSGAPPPS (ends and bridges not checked) [triple agonist peptide of SEQ ID NO: 4] | 71.4 | 7.37 | 2.17
6 | H[Aib]QGTFTSDLSRAMEKEAVRLFIEWLREGGPSSGAPPPS (ends and bridges not checked) [triple agonist peptide of SEQ ID NO: 2] | 104 | 34 | 25.1
7 | H[Aib]QGTFTSDLSRAMEK(R2)IAVRLFIEWLIEGGPSSGAPPPS-NH2 (reading uncertain) [triple agonist peptide of SEQ ID NO: 13, chemically modified with R2 side chain] | 217 | 9.83 | 16.1
8 | H[Aib]QGTFTSDLSLEQEKIAVRLFIEWLREGGPSSGAPPPS (ends and bridges not checked) [triple agonist peptide of SEQ ID NO: 9] | 136 | 95.8 | 20.1
9 | H[Aib]QGTFTSDLSRALEKIAARLFIEWLIEGGPSSGAPPPS (ends and bridges not checked) [triple agonist peptide of SEQ ID NO: 7] | 47.5 | 5.74 | 18.3
10 | H[Aib]QGTFTSDLSRYLEKEAVRLFIEWLIDGGPSSGAPPPS (ends and bridges not checked) [triple agonist peptide of SEQ ID NO: 10] | 71.6 | 94.7 | 21.8
11 | H[Aib]QGTFTSDLSRAMEKIAVRLFIEWLREGGPSSGAPPPS (ends and bridges not checked) [triple agonist peptide of SEQ ID NO: 1] | 64.7 | 3.99 | 1.33
12 | H[Aib]QGTFTSDLSRAMEKIAVRLFIEWLIEGGPSSGAPPPS (ends and bridges not checked) [triple agonist peptide of SEQ ID NO: 6] | 116 | 3.27 | 0.89
13 | H[Aib]QGTFTSDLSRALEK(R2)IAARLFIEWLIEGGPSSGAPPPS-NH2 (reading uncertain) [triple agonist peptide of SEQ ID NO: 14, chemically modified with R2 side chain] | 57 | 3.38 | 0.49
